Test results reported in patent publication US20220213196A1 (GRITSTONE BIO, published 2022).
Numbering of substitutions follows the chain as printed.

How the values were obtained:
[1] = molecular target: T1, HLA-A*01:01_… (HLA-PEPTIDE target G2), recombinant soluble complex (human, UniProt P04439-2 25-297; P61769 21-119, enzymatically biotinylated (BirA) for screening and functional assays); test: BLI (Octet), biotinylated pHLA on streptavidin sensors, Fab in solution
[2] = molecular target: HLA-B*35:01_… (HLA-PEPTIDE target G5), recombinant soluble complex (human, UniProt P01889 25-297 at identity 0.94); P61769 21-119, enzymatically biotinylated (BirA) for screening and functional assays); test: scFv PPE ELISA
[3] = molecular target: HLA-A*01:01_… (G2) on K562 cells (human); test: flow cytometry, HLA-A*01:01-transduced K562 cells pulsed with target peptide, IgG titration
[4] = molecular target: T2, HLA-A*02:01_… (HLA-PEPTIDE target G8), recombinant soluble complex (human, UniProt P04439 25-297 at identity 0.94); P61769 21-119, enzymatically biotinylated (BirA) for screening and functional assays); test: BLI (Octet), biotinylated pHLA on streptavidin sensors; printed under the Fab sensorgrams, the sheet does not say which format or fit gave the bivalent value
T2 construct: Also crystallised with Fab G8-P1C11

[5] = molecular target: T2, HLA-A*02:01_… (HLA-PEPTIDE target G8), …; test: BLI Octet, pHLA on streptavidin sensor, 1:1 fit
[6] = molecular target: T1, HLA-A*01:01_… (HLA-PEPTIDE target G2), …; test: BLI Octet, pHLA on streptavidin sensor, 1:1 fit
[7] = molecular target: T3, HLA-A*01:01_… (G10) on cells (human); test: flow cytometry histogram, IgG at 30 µg/mL on HLA-A*01:01-transduced K562 cells pulsed with 50 µM …
T3 construct: also called G10-presenting K562 cells; Colo829

[8] = molecular target: HLA-A*01:01_… (HLA-PEPTIDE target G10), recombinant soluble complex (human, UniProt P04439-2 25-297; P61769 21-119, enzymatically biotinylated (BirA) for screening and functional assays); test: scFv PPE ELISA

B1: Fab G2-P1H11 (Fab, V domains shown)
VH: QVQLVQSGAEVKKPGASVKVSCKASGYTFTNYYMHWVRQAPGQGLEWMGMINPSGGGTSYAQKFQGRVTMTRDTSTSTVYMELSSLRSEDTAVYYCARGNPWELRLDYWGQGTLVTVSS
VL: DIQMTQSPSSLSASVGDRVTITCQASQDISNYLNWYQQKPGKAPKLLIYAASSLQSGVPSRFSGSGSGTDFTLTISSLQPEDFATYYCQQYYSYPFTFGPGTKVDIK
notes: Fab
- Kd [1]: 46.1 nM
- koff [1]: 0.0233 s⁻¹
- kon [1]: 527000 M⁻¹ s⁻¹

B2: scFv G5R4-P3G05 (scFv, V domains shown)
VH: QVQLVQSGAEVKKPGASVKVSCKASGYTFTNYYMHWVRQAPGQGLEWMGIINPSGGSTSYAQKFQGRVTMTRDTSTSTVYMELSSLRSEDTAVYYCARSWFGGFNYHYYGMDVWGQGTTVTVSS
VL: B1 VL with Q27E, Y32H, A50D, S52L, Y91A, Y92N, Y94F
- fold binding to target pHLA over minipool of negative control pHLAs [2]: ≥ 3 fold

B3: IgG G2-P1H11 (antibody, V domains shown)
VH: B1 VH
VL: B1 VL
- binding result [3]: binds

B4: Fab G8-P1B03 (Fab, V domains shown)
VH: EVQLLESGGGLVQPGGSLRLSCAASGFTFSDYYMSWVRQAPGKGLEWVSGINWNGGSTGYADSVKGRFTISRDNSKNTLYLQMNSLRAEDTAVYYCARVEQGYDIYYYYYMDVWGKGTTVTVSS
VL: B1 VL with Q24R, D28S, N31S, A50K, Q55E, Y91S, Y94A, F96Y
notes: Fab from HEK293
- Apparent KD (bivalent) [4]: 3.54 nM
- Kd [5]: 307 nM
- koff [5]: 0.0511 s⁻¹
- kon [5]: 167000 M⁻¹ s⁻¹

B5: scFv G5-P1-E05 (scFv, V domains shown)
VH: QVQLVQSGAEVKKPGASVKVSCKASGYTFTSYNMHWVRQAPGQGLEWMGWINPNSGGTNYAQKFQGRVTMTRDTSTSTVYMELSSLRSEDTAVYYCARDVMDVWGQGTTVTVSS
VL: B1 VL with Q24R, D28G, A50Y, Y91T, S93M, Y94M, F96Y, P100Q, D105E
- fold binding to target pHLA over minipool of negative control pHLAs [2]: ≥ 3 fold

B6: Fab G8-P4F05 (Fab, V domains shown)
VH: QVQLVQSGAEVKKPGASVKVSCKASGYTFSNMYLHWVRQAPGQGLEWMGWINPNTGDTNYAQTFQGRVTMTRDTSTSTVYMELSSLRSEDTAVYYCARGLYGDYFLYYGMDVWGQGTKVTVSS
VL: B1 VL with Q24R, D28G, N34A, S53T, Y91S, Y94T, F96L, P100G, D105E
notes: Fab from HEK293; also called R3G8-P4F05
- Apparent KD (bivalent) [4]: 7.9 nM
- Kd [5]: 984 nM
- koff [5]: 0.063 s⁻¹
- kon [5]: 64000 M⁻¹ s⁻¹

B7: scFv G5-P3G08 (scFv, V domains shown)
VH: QVQLVQSGAEVKKPGASVKVSCKASGYIFRNYPMHWVRQAPGQGLEWMGWINPDSGGTKYAQKFQGRVTMTRDTSTSTVYMELSSLRSEDTAVYYCARDNGVGVDYWGQGTLVTVSS
VL: B1 VL with Q24R, D28G, N34A, Y91S, S93I, Y94T, F96Y, P100Q, V104L, D105E
- fold binding to target pHLA over minipool of negative control pHLAs [2]: ≥ 3 fold

B8: Fab G2-P2C06 (Fab, V domains shown)
VH: QVQLVQSGAEVKKPGASVKVSCKSSGYSFDSYVVNWVRQAPGQGLEWMGWINPNSGGTNYAQKFQGRVTMTRDTSTSTVYMELSSLRSEDTAVYYCARDWVLDYWGQGTLVTVSS
VL: B1 VL with Q24R, D28T, N31S, Y32W, N34A, Y91S, Y94T
notes: Fab
- Kd [6]: 30.6 nM
- koff [6]: 0.0348 s⁻¹
- kon [6]: 1.14e+06 M⁻¹ s⁻¹

B9: IgG G10-P1B07 (antibody, V domains shown)
VH: QVQLVQSGAEVKKPGASVKVSCKASGYTFTSYYMHWVRQAPGQGLEWMGIIHPGGGTTSYAQKFQGRVTMTRDTSTSTVYMELSSLRSEDTAVYYCARDKVYGDGFDPWGQGTLVTVSS
VL: DIQMTQSPSSLSASVGDRVTITCRASQSISRWLAWYQQKPGKAPKLLIFDASRLQSGVPSRFSGSGSGTDFTLTISSLQPEDFATYYCQQAEAFPYTFGQGTKVEIK
notes: IgG; also called R3G10-P1B07
- binding result [7]: binds

B10: scFv G5-P4E04 (scFv, V domains shown)
VH: QVQLVQSGAEVKKPGASVKVSCKASGGTFSSYGISWVRQAPGQGLEWMGWINPNSGVTKYAQKFQGRVTMTRDTSTSTVYMELSSLRSEDTAVYYCARGDYYFDYWGQGTLVTVSS
VL: B9 VL with W32F, A34N, F49Y, D50G, L54P, A91S, E92Y, A93S, F94T, Y96L
- fold binding to target pHLA over minipool of negative control pHLAs [2]: ≥ 3 fold

B11: scFv G5-P1B12 (scFv, V domains shown)
VH: EVQLLESGGGLVQPGGSLRLSCAASGFTFSNSDMNWVRQAPGKGLEWVASISSSGGYINYADSVKGRFTISRDNSKNTLYLQMNSLRAEDTAVYYCAKVNWNDGPYFDYWGQGTLVTVSS
VL: B9 VL with R31S, F49Y, D50A, R53S, E92N, A93S, Y96L, Q100G
- fold binding to target pHLA over minipool of negative control pHLAs [2]: ≥ 3 fold

B12: scFv G5-P1C12 (scFv, V domains shown)
VH: QVQLVQSGAEVKKPGSSVKVSCKASGGTFSNFGVSWLRQAPGQGLEWMGGIIPILGTANYAQKFQGRVTITADESTSTAYMELSSLRSEDTAVYYCATPTNSGYYGPYYYYGMDVWGQGTTVTVSS
VL: B9 VL with R31S, F49Y, D50A, R53T, A91S, E92Y, A93S, F94I, Y96L, Q100G
- fold binding to target pHLA over minipool of negative control pHLAs [2]: ≥ 3 fold

B13: scFv R3G10-P5C08 (scFv, V domains shown)
VH: QVQLVQSGAEVKKPGASVKVSCKASGYNFTGYYMHWVRQAPGQGLEWMGIIAPSDGSTNYAQKFQGRVTMTRDTSTSTVYMELSSLRSEDTAVYYCARETGDDAFDIWGQGTMVTVSS
VL: not shown
- fold binding to target pHLA over minipool of negative control pHLAs [8]: ≥ 3 fold

B14: scFv G5R4-P1D06 (scFv, V domains shown)
VH: QVQLVQSGAEVKKPGASVKVSCKASGYTFTSYDINWVRQAPGQGLEWMGWINPNSGDTKYSQKFQGRVTMTRDTSTSTVYMELSSLRSEDTAVYYCARDGTRYYGMDVWGQGTTVTVSS
VL: not shown
- fold binding to target pHLA over minipool of negative control pHLAs [2]: ≥ 3 fold

B15: scFv G5-P3G01 (scFv, V domains shown)
VH: QVQLVQSGAEVKKPGASVKVSCKASGGTFSGYLVSWVRQAPGQGLEWMGWINPNSGGTNTAQKFQGRVTMTRDTSTSTVYMELSSLRSEDTAVYYCAREGYGMDVWGQGTTVTVSS
VL: not shown
- fold binding to target pHLA over minipool of negative control pHLAs [2]: ≥ 3 fold

B16: scFv G5R4-P4B01 (scFv, V domains shown)
VH: QVQLVQSGAEVKKPGSSVKVSCKASGGTFSSYAISWVRQAPGQGLEWMGGIIPIVGTANYAQKFQGRVTITADESTSTAYMELSSLRSEDTAVYYCARGGSYYYYGMDVWGQGTTVTVSS
VL: not shown
- fold binding to target pHLA over minipool of negative control pHLAs [2]: ≥ 3 fold

B17: scFv G5R4-P1H11 (scFv, V domains shown)
VH: EVQLLESGGGLVKPGGSLRLSCAASGFTFSDYYMSWVRQAPGKGLEWVSYISSSSSYTNYADSVKGRFTISRDDSKNTLYLQMNSLKTEDTAVYYCARDVVANFDYWGQGTLVTVSS
VL: EIVMTQSPATLSVSPGERATLSCRASQSVSSNLAWYQQKPGQAPRLLIYAASARASGIPARFSGSGSGTEFTLTISSLQSEDFAVYYCQQYGSWPRTFGQGTKVEIK
- fold binding to target pHLA over minipool of negative control pHLAs [2]: ≥ 3 fold

B18: scFv G5R4-P2B10 (scFv, V domains shown)
VH: QVQLVQSGAEVKKPGASVKVSCKASGGTFSSYAISWVRQAPGQGLEWMGWMNPDSGSTGYAQRFQGRVTMTRDTSTSTVYMELSSLRSEDTAVYYCARGHSSGWYYYYGMDVWGQGTTVTVSS
VL: not shown
- fold binding to target pHLA over minipool of negative control pHLAs [2]: ≥ 3 fold

B19: scFv G5-P4B02 (scFv, V domains shown)
VH: QVQLVQSGAEVKKPGASVKVSCKASGYTFTGYYMHWVRQAPGQGLEWMGWMNPNIGNTGYAQKFQGRVTMTRDTSTSTVYMELSSLRSEDTAVYYCARGIADSGSYYGNGRDYYYGMDVWGQGTTVTVSS
VL: DIVMTQSPDSLAVSLGERATINCKTSQSVLYRPNNENYLAWYQQKPGQPPKLLIYQASIREPGVPDRFSGSGSGTDFTLTISSLQAEDVAVYYCQQYYTTPYTFGQGTKLEIK
- fold binding to target pHLA over minipool of negative control pHLAs [2]: ≥ 3 fold
